Assay results published in the Human Domainome abundance scans (Beltran et al. 2025).
± gives the uncertainty stated by the source.

B1: Membrane-associated guanylate kinase, WW and PDZ domain-containing protein 3, residues 287 to 329; numbered along this chain, Q5TCQ9 (parent)
chain: MRDETLEPLPKNWEMAYTDTGMIYFIDHNTKTTTWLDPRLCKK

Variants of: B1
Assay: abundance fitness (aPCA) (normalised: wild type 0, dead -1); higher = more abundant; growth selection in yeast, the domain comes from the species named
Details: Homo sapiens

Abundance fitness, by site and new letter:
D19: Q -0.055 ± 0.079, Y -0.173 ± 0.22, P -0.07 ± 0.052, E -0.001 ± 0.039, C -0.122 ± 0.054, I -0.536 ± 0.15, K -0.034 ± 0.053, T -0.067 ± 0.044, S -0.019 ± 0.035, R -0.091 ± 0.045, A -0.047 ± 0.033
E7: A -0.076 ± 0.038, D -0.113 ± 0.078, L -0.115 ± 0.035, N -0.238 ± 0.069, R -0.084 ± 0.033, F -0.327 ± 0.045, G 0.013 ± 0.032, P 0.014 ± 0.049, W -0.24 ± 0.044, K -0.101 ± 0.045, I -0.218 ± 0.054, Q -0.04 ± 0.041, M -0.145 ± 0.038, C -0.324 ± 0.067, V -0.09 ± 0.04, S -0.049 ± 0.044
T20: N -0.132 ± 0.27, E 0.017 ± 0.037, Y -0.256 ± 0.067, H -0.345 ± 0.22, M -0.153 ± 0.042, S -0.023 ± 0.053, G -0.025 ± 0.028, D -0.054 ± 0.07, I -0.24 ± 0.053, W -0.328 ± 0.054, C -0.077 ± 0.04, P -0.48 ± 0.05
M15: W -0.283 ± 0.053, S -0.047 ± 0.042, R -0.013 ± 0.034, P -0.11 ± 0.079, Q -0.007 ± 0.035, F -0.189 ± 0.036, E -0.062 ± 0.051, V -0.093 ± 0.035, H -0.156 ± 0.062, K -0.037 ± 0.05, Y -0.186 ± 0.051, I 0.036 ± 0.24, L -0.066 ± 0.035, D -0.379 ± 0.041, G -0.334 ± 0.034, T -0.039 ± 0.051, A -0.043 ± 0.038, C -0.097 ± 0.053
L6: I 0.141 ± 0.22, H -0.249 ± 0.07, M -0.067 ± 0.069, E -0.029 ± 0.053, Y -0.156 ± 0.052, A 0.016 ± 0.036, F -0.13 ± 0.19, V -0.024 ± 0.031, P -0.068 ± 0.039, D -0.086 ± 0.061, S 0.034 ± 0.034, W -0.108 ± 0.039, R -0.026 ± 0.032, G 0.001 ± 0.032, Q 0.103 ± 0.071, T -0.018 ± 0.044, K -0.128 ± 0.13
A16: H -0.514 ± 0.092, N -0.318 ± 0.086, R -0.076 ± 0.032, G -0.149 ± 0.031, V -0.193 ± 0.042, K -0.067 ± 0.055, L -0.297 ± 0.04, M -0.36 ± 0.058, Q -0.15 ± 0.039, E -0.278 ± 0.04, D -0.257 ± 0.042, P -0.914 ± 0.063
P8: G -0.13 ± 0.03, M -0.255 ± 0.056, R -0.112 ± 0.031, T -0.162 ± 0.061, Q -0.15 ± 0.053, C -0.332 ± 0.24, Y -0.395 ± 0.13, K -0.069 ± 0.041, W -0.367 ± 0.042, V -0.187 ± 0.035, S -0.325 ± 0.11, A -0.065 ± 0.034, E -0.078 ± 0.076, D -0.087 ± 0.05
N12: F -0.198 ± 0.049, C -0.257 ± 0.14, K -0.155 ± 0.044, M -0.229 ± 0.06, S -0.213 ± 0.038, G 0.018 ± 0.032, W -0.412 ± 0.045, T -0.438 ± 0.073, D -0.081 ± 0.039, H -0.185 ± 0.08, V -0.89 ± 0.071, Q -0.237 ± 0.046, L -0.247 ± 0.035, E -0.22 ± 0.049, A -0.191 ± 0.034, I -0.96 ± 0.11, P -0.383 ± 0.054, R -0.215 ± 0.033
P10: C -0.54 ± 0.11, A -0.392 ± 0.038, F -0.831 ± 0.071, S -0.496 ± 0.037, R -0.685 ± 0.034, I -0.854 ± 0.12, H -0.677 ± 0.087, D -0.527 ± 0.13, E -0.456 ± 0.057, W -0.837 ± 0.058, T -0.462 ± 0.053, L -0.613 ± 0.046, V -0.816 ± 0.089, Q -0.505 ± 0.048
I23: P -0.001 ± 0.064, M -0.006 ± 0.047, D -0.32 ± 0.1, N -0.12 ± 0.058, E 0.028 ± 0.034, L -0.01 ± 0.029, Q 0.042 ± 0.044, V 0.03 ± 0.035, C 0.002 ± 0.034, T -0.006 ± 0.042, S -0.068 ± 0.04, W -0.277 ± 0.05, G -0.087 ± 0.028, A 0.053 ± 0.032, F -0.162 ± 0.098
F25: I -0.557 ± 0.14, G -0.57 ± 0.03, H -0.421 ± 0.1, V -0.989 ± 0.052, M -0.721 ± 0.43, T -0.662 ± 0.058, P -0.679 ± 0.041, S -0.616 ± 0.057, R -0.692 ± 0.035, C -0.774 ± 0.049, E -0.565 ± 0.049, L -0.82 ± 0.056, W -0.077 ± 0.036, D -0.516 ± 0.042, K -0.68 ± 0.086, Q -0.634 ± 0.05
K11: D -0.092 ± 0.086, T -0.068 ± 0.043, F -0.21 ± 0.11, C -0.137 ± 0.039, M -0.161 ± 0.045, N -0.118 ± 0.093, L -0.08 ± 0.038, A -0.033 ± 0.039, I -0.271 ± 0.069, Q -0.041 ± 0.044, R -0.049 ± 0.03, V -0.109 ± 0.037, H -0.08 ± 0.037, P 0.007 ± 0.049, E 0.024 ± 0.033, S -0.068 ± 0.034
T5: N 0.125 ± 0.2, H -0.059 ± 0.054, A -0.04 ± 0.042, V -0.064 ± 0.033, G -0.05 ± 0.028, P -0.023 ± 0.036, W -0.303 ± 0.062, R -0.064 ± 0.036, Y -0.19 ± 0.056, E -0.046 ± 0.037, F -0.384 ± 0.16, Q 0.012 ± 0.058, K 0.072 ± 0.057, D -0.02 ± 0.054, C -0.123 ± 0.09, M 0.251 ± 0.14
T18: S -0.128 ± 0.044, E -0.389 ± 0.038, N -0.391 ± 0.46, M -0.335 ± 0.044, Q -0.624 ± 0.13, W -0.676 ± 0.054, L -0.471 ± 0.063, G -0.244 ± 0.029, C -0.223 ± 0.097, P -1.03 ± 0.13, K -0.539 ± 0.23, A -0.151 ± 0.035, R -0.7 ± 0.035
Y24: G -0.774 ± 0.036, H -0.574 ± 0.11, A -0.723 ± 0.039, R -0.598 ± 0.035, S -0.708 ± 0.058, V -0.567 ± 0.04, F -0.146 ± 0.06, D -0.524 ± 0.12, K -0.668 ± 0.071, Q -0.582 ± 0.097, E -0.53 ± 0.043, L -0.61 ± 0.036, I -0.678 ± 0.12, W -0.579 ± 0.037, C -0.652 ± 0.042, T -0.638 ± 0.072
L9: V -0.337 ± 0.036, G -0.681 ± 0.034, S -0.621 ± 0.045, E -0.566 ± 0.052, R -0.639 ± 0.058, Q -0.566 ± 0.057, K -0.683 ± 0.087, W -0.492 ± 0.073, A -0.691 ± 0.095, M -0.106 ± 0.054, C -0.721 ± 0.23
G21: R -0.237 ± 0.033, P -0.682 ± 0.081, L -0.67 ± 0.036, K -0.172 ± 0.066, Q -0.222 ± 0.059, S -0.487 ± 0.066, A -0.312 ± 0.036, D -0.241 ± 0.091, W -0.782 ± 0.068, T -0.689 ± 0.061, V -1.18 ± 0.077, E -0.215 ± 0.039, M -0.46 ± 0.067
M22: E 0.144 ± 0.044, L -0.043 ± 0.04, P -0.62 ± 0.062, C -0.028 ± 0.11, T -0.005 ± 0.049, Q 0.096 ± 0.071, H -0.137 ± 0.06, S 0.199 ± 0.13, G 0.006 ± 0.031, K 0.075 ± 0.07, D 0.084 ± 0.054, Y 0.004 ± 0.14, A 0.081 ± 0.029, V -0.025 ± 0.041, R -0.043 ± 0.033
I26: G -0.657 ± 0.039, L -0.097 ± 0.044, D -0.659 ± 0.13, C -0.352 ± 0.058, K -0.196 ± 0.051, E -0.543 ± 0.091, P -0.868 ± 0.16, Q -0.485 ± 0.092
Y17: A 0.026 ± 0.047, V 0 ± 0.034, N -0.194 ± 0.068, G -0.199 ± 0.033, R 0.054 ± 0.029, E 0.031 ± 0.037, W -0.043 ± 0.037, S -0.024 ± 0.043, P -0.376 ± 0.039, L -0.034 ± 0.04, K -0.03 ± 0.056, D -0.323 ± 0.058, Q -0.025 ± 0.071, H -0.121 ± 0.1, C -0.052 ± 0.041, F -0.043 ± 0.066
W13: R -0.634 ± 0.04, P -0.715 ± 0.073, S -0.698 ± 0.096, E -0.683 ± 0.045, Q -0.729 ± 0.068, M -0.398 ± 0.041, C -0.636 ± 0.063, V -0.303 ± 0.03, A -0.668 ± 0.036, L -0.635 ± 0.046, I -0.431 ± 0.059, D -0.773 ± 0.096, K -0.67 ± 0.064, G -0.696 ± 0.033, T -0.475 ± 0.042, F -0.221 ± 0.17
E14: N -0.372 ± 0.065, K -0.262 ± 0.036, Y -0.368 ± 0.12, P -0.868 ± 0.064, W -0.834 ± 0.056, L -0.456 ± 0.095, R -0.273 ± 0.035, G -0.224 ± 0.029, M -0.346 ± 0.042, S -0.12 ± 0.033, H -0.429 ± 0.066, V -0.346 ± 0.043, Q -0.087 ± 0.051, A -0.132 ± 0.042, F -1.06 ± 0.27, I -0.39 ± 0.066
E4: G -0.113 ± 0.03, A -0.09 ± 0.038, C -0.062 ± 0.038, Q -0.04 ± 0.035, S -0.043 ± 0.045, Y -0.319 ± 0.11, R -0.091 ± 0.03, P -0.095 ± 0.045, H -0.174 ± 0.063, M -0.11 ± 0.043, K -0.107 ± 0.065, D -0.115 ± 0.055, L -0.09 ± 0.04, W -0.515 ± 0.057, F -0.097 ± 0.068
